Results published in paper PMC3853298 (2013).

B1: mouse decorin core protein, wild type (residues 45-354) [modified: N-linked glycans (four consensus sites for N-linked glycosylation); N-linked glycans (four consensus sites for N-linked glycosylation)] [mouse] / rat tail type I collagen … (parent complex)
chain 1: APLALISMCPYRCQCHLRVVQCSDLGLDKVPWDFPPDTTLLDLQNNKITEIKEGAFKNLKDLHTLILVNNKISKISPEAFKPLVKLERLYLSKNQLKELPEKMPRTLQELRVHENEITKLRKSDFNGLNNVLVIELGGNPLKNSGIENGAFQGLKSLSYIRISDTNITAIPQGLPTSLTEVHLDGNKITKVDAPSLKGLINLSKLGLSFNSITVMENGSLANVPHLRELHLDNNKLLRVPAGLAQHKYIQVVYLHNNNISAVGQNDFCRAGHPSRKASYSAVSLYGNPVRYWEIFPNTFRCVYVRSAIQLGNYKAAA
chain 2: not shown
chain 3: not shown

Variants of: B1
Assay: solid-phase binding assay (immobilized collagen, antibody-linked color reaction); decorin 2.5 µM (highest concentration); WT without collagen background est. 0.05; parent: 0.4; read off a plot

Variant | response [OD 492]
chain 1 Y11A, chain 1 R12A, chain 1 Q14A | ~0.28
chain 1 R111E | ~0.18
